According to publication PMC3302758 (Molecular Biology of the Cell, 2012):

Molecular target: Cystic fibrosis transmembrane conductance regulator (CFTR), wild type, transiently expressed in HEK293 cells (UniProt P13569 1-1480)
Experiment: co-IP

Cystic fibrosis transmembrane conductance regulator (CFTR), wild type, transiently expressed in HEK293 cells, sequence (P13569 whole entry): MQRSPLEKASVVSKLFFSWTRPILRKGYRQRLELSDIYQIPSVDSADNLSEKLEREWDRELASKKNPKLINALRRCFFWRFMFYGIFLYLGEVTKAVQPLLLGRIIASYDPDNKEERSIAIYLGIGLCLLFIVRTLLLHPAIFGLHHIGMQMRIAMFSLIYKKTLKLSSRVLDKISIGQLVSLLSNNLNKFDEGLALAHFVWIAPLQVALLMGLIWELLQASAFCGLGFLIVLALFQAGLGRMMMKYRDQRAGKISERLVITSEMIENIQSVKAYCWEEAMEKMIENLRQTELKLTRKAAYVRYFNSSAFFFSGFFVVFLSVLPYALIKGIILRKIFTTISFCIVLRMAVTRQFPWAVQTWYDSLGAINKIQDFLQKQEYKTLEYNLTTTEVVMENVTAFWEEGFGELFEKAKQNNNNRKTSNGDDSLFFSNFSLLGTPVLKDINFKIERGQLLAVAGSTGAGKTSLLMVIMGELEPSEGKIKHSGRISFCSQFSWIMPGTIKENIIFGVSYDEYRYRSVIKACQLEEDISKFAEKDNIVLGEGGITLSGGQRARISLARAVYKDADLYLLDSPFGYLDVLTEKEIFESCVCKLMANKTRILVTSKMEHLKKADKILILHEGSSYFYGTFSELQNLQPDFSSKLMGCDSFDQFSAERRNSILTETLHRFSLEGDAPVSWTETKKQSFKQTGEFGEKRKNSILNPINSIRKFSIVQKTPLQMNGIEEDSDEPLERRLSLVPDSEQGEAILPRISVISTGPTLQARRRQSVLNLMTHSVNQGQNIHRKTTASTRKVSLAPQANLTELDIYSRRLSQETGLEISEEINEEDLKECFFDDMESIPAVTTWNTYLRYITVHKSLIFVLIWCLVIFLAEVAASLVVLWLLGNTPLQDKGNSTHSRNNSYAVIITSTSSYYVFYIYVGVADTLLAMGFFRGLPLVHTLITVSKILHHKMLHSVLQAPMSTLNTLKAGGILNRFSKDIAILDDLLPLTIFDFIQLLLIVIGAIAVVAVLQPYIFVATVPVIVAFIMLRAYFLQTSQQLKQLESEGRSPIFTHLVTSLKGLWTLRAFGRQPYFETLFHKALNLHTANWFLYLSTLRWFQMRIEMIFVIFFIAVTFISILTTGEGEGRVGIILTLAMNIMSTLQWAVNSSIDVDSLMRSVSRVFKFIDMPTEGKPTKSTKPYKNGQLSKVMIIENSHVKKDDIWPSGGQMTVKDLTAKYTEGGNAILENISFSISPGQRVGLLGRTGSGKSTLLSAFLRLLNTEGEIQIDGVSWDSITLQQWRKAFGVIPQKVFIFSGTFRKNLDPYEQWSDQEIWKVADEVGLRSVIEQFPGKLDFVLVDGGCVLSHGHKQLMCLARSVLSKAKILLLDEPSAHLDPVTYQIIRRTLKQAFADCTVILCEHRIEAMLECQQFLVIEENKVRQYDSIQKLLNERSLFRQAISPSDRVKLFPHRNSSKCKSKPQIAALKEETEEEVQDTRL

B1: 14-3-3ε, endogenous in HEK293 cells (natural protein, human (endogenous in HEK293), UniProt P62258 1-255, looked up)
chain: MDDREDLVYQAKLAEQAERYDEMVESMKKVAGMDVELTVEERNLLSVAYKNVIGARRASWRIISSIEQKEENKGGEDKLKMIREYRQMVETELKLICCDILDVLDKHLIPAANTGESKVFYYKMKGDYHRYLAEFATGNDRKEAAENSLVAYKAASDIAMTELPPTHPIRLGLALNFSVFYYEILNSPDRACRLAKAAFDDAIAELDTLSEESYKDSTLIMQLLRDNLTLWTSDMQGDGEEQNKEALQDVEDENQ
- fold increase of the co-precipitate with forskolin against basal: 3.1 fold
